The results in this text go back to patent US20020009752A1 (DUKE UNIVERSITY, published 2002).

No end group written: not given here.

Experiment [1] has as its target T1, polyglutamine-glutathione-S-transferase fusion protein with 62 glutamines (UniProt Q156A1 2-63).
T1 construct: Vector construction is cited to Onodera et al. 1996; also called Q62-GST; Q62; not shown: glutathione-S-transferase (GST)
Briefly: phage ELISA on immobilized Q62-GST and Q19-GST, anti-M13 antibody detection; reference Q19-GST. (In general: An ELISA detects its analyte on a solid surface through an enzyme-linked reagent.)

Experiment [2] has as its target T2, bovine serum albumin (bovine, UniProt P02769 25-607).
T2 construct: also called BSA
Briefly: phage ELISA.

Experiment [3] has as its target thioredoxin-polyglutamine fusion protein with 62 glutamines (Homo sapiens (Human), UniProt Q156A1 2-63). The experiment in a line: cell-based or functional assay.
For experiment [4], the target named is thioredoxin-polyglutamine fusion protein with 81 glutamines (Dictyostelium discoideum (Social amoeba), UniProt Q54DK4 734-1290). The experiment in a line: cell-based or functional assay.
Sequence of thioredoxin-polyglutamine fusion protein with 81 glutamines (Q54DK4 other isoform, or with tags, fused parts or gaps): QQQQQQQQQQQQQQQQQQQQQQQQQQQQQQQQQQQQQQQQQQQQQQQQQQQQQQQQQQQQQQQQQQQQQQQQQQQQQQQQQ

T1 sequence (Q156A1 2-63): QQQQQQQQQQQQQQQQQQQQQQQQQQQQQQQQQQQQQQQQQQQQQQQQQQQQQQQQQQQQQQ
T2 sequence (P02769 25-607 limits assumed): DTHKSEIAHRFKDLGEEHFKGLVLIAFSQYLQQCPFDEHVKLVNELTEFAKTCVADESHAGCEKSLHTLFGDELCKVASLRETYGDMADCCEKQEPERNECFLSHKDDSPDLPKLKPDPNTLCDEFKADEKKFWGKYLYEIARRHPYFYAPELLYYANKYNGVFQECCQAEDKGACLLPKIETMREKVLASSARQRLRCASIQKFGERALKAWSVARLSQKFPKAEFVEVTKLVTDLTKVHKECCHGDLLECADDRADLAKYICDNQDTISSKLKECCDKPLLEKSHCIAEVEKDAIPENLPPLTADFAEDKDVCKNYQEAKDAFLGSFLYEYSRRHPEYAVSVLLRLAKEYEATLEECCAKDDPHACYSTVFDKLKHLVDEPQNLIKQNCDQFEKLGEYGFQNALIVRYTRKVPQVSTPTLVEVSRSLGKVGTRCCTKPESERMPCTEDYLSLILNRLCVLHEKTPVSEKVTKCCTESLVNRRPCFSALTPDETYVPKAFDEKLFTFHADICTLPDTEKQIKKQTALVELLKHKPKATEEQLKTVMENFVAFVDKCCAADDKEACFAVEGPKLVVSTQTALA
Sequence of thioredoxin-polyglutamine fusion protein with 62 glutamines (Q156A1 2-63): as the sequence (Q156A1 2-63) above

B1: QBP6 phage clone (Glutamine Binding Peptide 6 displayed on M13 phage) (peptide)
chain: WHNYFHWWQDT-pIII
notes: Assayed as purified M13 phage displaying the 11-mer at the amino terminus of pIII; not shown: pIII (Piii) capsid protein of phage M13; the 11-mer is added to its amino terminus; assayed as whole phage
Turning to B1, in experiment [1], the “RATIO Q62/Q19 BINDING ELISA” value is 1.23 ratio (phage bound to Q62-GST divided by phage bound to Q19-GST). Moreover, the binding result in experiment [2] was “no binding”.

B2: QBP5 phage clone (Glutamine Binding Peptide 5 displayed on M13 phage) (peptide)
chain: WWRWNWATPVD-pIII
notes: as for B1
With B2, the “RATIO Q62/Q19 BINDING ELISA” value in experiment [1] was 1.25 ratio (phage bound to Q62-GST divided by phage bound to Q19-GST). Moreover, the binding result in experiment [2] is on record as “no binding”.

B3: QBP4 phage clone (Glutamine Binding Peptide 4 displayed on M13 phage) (peptide)
chain: WGLEHFAGNKR-pIII
notes: as for B1
As to B3, the “RATIO Q62/Q19 BINDING ELISA” value in experiment [1] was 1.27 ratio (phage bound to Q62-GST divided by phage bound to Q19-GST). The binding result in experiment [2] is on record as “no binding”.

B4: QBP1 phage clone (Glutamine Binding Peptide 1 displayed on M13 phage) (peptide)
chain: SNWKWWPGIFD-pIII
notes: as for B1
As for B4, in experiment [1], the “RATIO Q62/Q19 BINDING ELISA” value is 1.66 ratio (phage bound to Q62-GST divided by phage bound to Q19-GST). In addition, the binding result in experiment [2] is reported as “no binding”.

B5: QBP3 phage clone (Glutamine Binding Peptide 3 displayed on M13 phage) (peptide)
chain: HEWHWWHQEAA-pIII
notes: as for B1
Regarding B5, the “RATIO Q62/Q19 BINDING ELISA” value in experiment [1] is 1.3 ratio (phage bound to Q62-GST divided by phage bound to Q19-GST). The binding result in experiment [2] is “no binding”.

B6: QBP1 synthetic 11-mer peptide (glutamine binding peptide 1) (peptide)
peptide: Ac-SNWKWWPGIFD
Take B6: the “inhibition of thio-Q62 aggregation in vitro (turbidity at 405 nm)” value in experiment [3] was 3 molar ratio thio-Q62:QBP1 (3:1) for complete inhibition. In addition, the “inhibition of thio-Q81 aggregation in vitro (turbidity at 405 nm)” value in experiment [4] is 10 fold molar excess of QBP1 over thio-Q81.

B7: QBP2 phage clone (Glutamine Binding Peptide 2 displayed on M13 phage) (peptide)
chain: HWWRSWYSDSV-pIII
notes: as for B1
Turning to B7, the “RATIO Q62/Q19 BINDING ELISA” value in experiment [1] is 1.31 ratio (phage bound to Q62-GST divided by phage bound to Q19-GST). The binding result in experiment [2] is given as “no binding”.
